The results in this text go back to patent US20200140562A1.

Assay [1] has as its target human OX40 on cells (CHO-hOX40, 293HEK-hOX40, Jurkat-hOX40, activated primary CD4+ T cells) (human) (UniProt P43489). Kind of assay: flow cytometry, CHO-hOX40, 100 nM.
The target is the same in assay [2]. Kind of assay: flow cytometry, 293HEK-hOX40, 8 nM.
The target is the same in assay [3]. In words: flow cytometry, 293HEK-hOX40, 40 nM.
Assay [4] has the same target. Kind of assay: flow cytometry, 293HEK-hOX40, 1.6 nM.
For assay [5] the target is unchanged. Kind of assay: flow cytometry, 293HEK-hOX40, 200 nM.
The target in assay [6] is human OX40_Fc (R&D Systems) (human) (UniProt P43489). In words: BLI, IgG1 on tip, hOX40-Fc 50 nM, avid.
Chain of human OX40_Fc (R&D Systems) (human) (P43489 29-216): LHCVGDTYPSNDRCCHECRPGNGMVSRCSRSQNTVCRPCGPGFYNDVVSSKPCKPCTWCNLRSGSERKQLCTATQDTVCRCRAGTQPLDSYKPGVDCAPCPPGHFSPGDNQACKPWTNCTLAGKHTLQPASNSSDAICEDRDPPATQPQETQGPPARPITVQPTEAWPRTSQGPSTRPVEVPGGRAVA
Assay [7] has as its target cyno OX40_Fc (Acro Biosystems) (cyno). Kind of assay: BLI, IgG1 on tip, cyno OX40-Fc 100 nM, avid.
Assay [8] concerns the target human OX40 on cells (CHO-hOX40, 293HEK-hOX40, Jurkat-hOX40, activated primary CD4+ T cells) (human) (UniProt P43489). In words: flow cytometry, activated CD4+ T cells, donor 2, 100 nM.
Assay [9] shares this target. Kind of assay: flow cytometry, CHO-hOX40, 100 nM blocker, competitor OX40L-hFc-fluorescein.
The target is the same in assay [10]. Kind of assay: cell-based or functional assay.

Chain of human OX40 on cells (CHO-hOX40, 293HEK-hOX40, Jurkat-hOX40, activated primary CD4+ T cells) (human) (P43489 29-277): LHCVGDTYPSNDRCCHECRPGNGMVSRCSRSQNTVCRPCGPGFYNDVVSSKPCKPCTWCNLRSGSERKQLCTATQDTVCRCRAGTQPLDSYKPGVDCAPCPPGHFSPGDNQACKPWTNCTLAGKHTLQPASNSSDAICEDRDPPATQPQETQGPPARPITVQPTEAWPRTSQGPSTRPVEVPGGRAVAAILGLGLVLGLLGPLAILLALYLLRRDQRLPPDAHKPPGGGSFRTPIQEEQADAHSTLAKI

11D4, IgG1 OX40 antibody: the CHO-OX40 binding intensity (MFI) in assay [1] stood at 169000 MFI. In addition, the MFI in assay [2] turned out to be 2.06e+06 MFI; in assay [3], 2.76e+06 MFI; in assay [4], 613000 MFI; in assay [5], 2.41e+06 MFI; in assay [8] it was 242000 MFI. The Kd in assay [6] was 0.613 nM; in assay [7], 5.95 nM. The MFI of OX40L signal on CHO-OX40 cells in assay [9] was 36000 MFI.
As to pogalizumab, human IgG1 OX40 antibody, the blocking of OX40L-based activation (recombinant OX40L 60 ug/ml), NFkB-luciferase in Jurkat-hOX40 in assay [10] is more than 0.08 nM.
